This data set in a line: protease stability score; higher = more stable; yeast display proteolysis, trypsin and chymotrypsin.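 Further: relative to predicted unfolded state with 0 unfolded-like and 1 meaning tenfold more protease.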
In the case of “DEDDELKKTAVHDFTRDIATGDEESLHKLVDPHVRTTFDGQDLIGREHMWEHIHRLLRRYKNIRSEHIHIREIHVVDGVVESHTHIHMRIGEFKFIFNVHVFILKVDGVWFVHEAHYV”, the protease stability score was determined as 0.886. The result for “DEDDELMKRFVDLLLEQLQTGDWRYIARMVDPHVRSDVDIDGVHLKYHGREMYVKLFTDLGAKHMELKHIEVQGDKADIHSHVHFDGQEREIIIYSFKVNGRWRTKRLEVRTI” reads 0.932; that for “DEDDELSHRAVLLYMEAVLTGNEDFMSRLVDPDVRHIVGDKEYIGREQFVEWFNEFVEKVKNVTVRLRHHDIQGDKVVVHTEYRVNGRTWHEHVIILKINGKWRLKELRIHIE”, 0.723; that for “DEDDELSRKAREFTSEVLRTGDEHSLLRMADPNTRNIVGNKEEHGWEHFEHFVREHWRRFGITNVDVKLEDLRVVDGRIEADMRVRVNGVERTWHFLIRKIDGKWRMESIEIR”, 0.416. The result for “DEDDELYKRVFELIEHDNHTGNEKSHLELADPHARLLYDGKLVIGRELLLEWMRRLGIDVIRHMDFKRFRIQGDKIEMDVRVHGEVNGRHIDTDTHLIARKVNGRWLLEEIRIK” reads 0.937; that for “DEDDEMWRELFEMYIRLARTGDEKADELLMDPDARIEIGDKRWHGREWTHFFLERVDHVHRVEFRVDDRRIQGDKVDVDGTFILDIHQGDKRIHTSIRSHLTVLKVDGKWRVHQMELR”, 1.73; that for “DEDDENIEKVLRTLFKLIHTGDWRTWLRFFDPHVKLEIGDKRLHGREVAEEFIRHRIEHLGVDRVEVRLHSFDKQGNKLHSDMRLYVGDKEFNVEMHMEKVNGKWIVRVFSID”, 1.38. In turn, “DEDDENNREMHDLSIRLFKTGDFDKIHKLMDPNAKLVIDIGDKHLHHHGREEASKRIFEIWHTLGVDHVHIKTHRHYGEKITIDMHLDINGQDTELIIVVLKINGRWLIQSVSMHFR” returned a protease stability score of 1.35. The result for “DEDDENVEQFIELFNEVMNTGDWRSLKRMIDPNARSRIGEKHLIGREMLEDFRHQADHVKIRDMKIERSHVINGRVLVDGIVHGEENFNGRRFLVNREVHLVVVKVNGRWFLRSIEFG” reads 0.809. The result for “DEDDERSRLFLEEMMRTLLTGDERKSHELADPRVRINVNGRHIHGRELWNRFVHEARIRITHHRIHSRDIYNGRIELDVELRGDIHIGDKDIHLDTRIILFVLKVNGRWHLEIMEIV” reads 1.25; that for “DEDDEVAIKFLEDIIQVWETGDEEEFSRLFDPDYRVHIGDKTLHGREIVVQEILEHLRRLGIERFEVRIHIRHAHFYNGRLDLNGELVIIINGKELRRHTHFVVLKVNGRWLLEREEVK”, 1.76. The result for “DEDDEVSKFVAHVLSRVFHTGDEENLQKLADPNVRLHIGDKHHIGRETFIRWLRHFLDRADHVDSDVHDVRSIDGRIWADTRLRLEINGQTIEREVIIVIHKINGRWILHRIEIR” reads 1.49. The sequence “DEDDHFWERLTEIILHILQTGNEEALHRMLDPHMRLDYNGRSFHGRELAQKALMRFWEDLGVDHIRVKDRRVQGDKVHLHGEIIIDGRLHETREHWLIVNGRIKHVRLEIR” came in with a protease stability score of 0.696. The result for “DEDDKDIEMVLRRLIEMVMTGDFEKAKRYADPDMQLDIGDKHFVGRETTITVLREWREHLGIDHVDIDHVHLHIIDGQVIVDLDITHRAENREIRVRFIHYVDKINGRWLVRRVDVKIH” reads 2.31. The result for “DEDDKEAEKALRDMVHSWVTGDEQKNQELADPHVRVIIGEFNFVGRDDLDKWLREIRIHNIEIKDIDVFDGKVELKGTLTIRIGDKEVRHEVDFYMVKINGRWHLHRIQVH” reads 2.08. The result for “DEDDKKAEDFANVIAHNLMTGDEEKHNKMIDPNVKIFINGQTVHGRDEFSKVMRRYKNLRIDWEVEELEIVNGQVRLKGHLHVEVNGVETRIDTHIVVTKVNGRWHMKEIYYH” reads 1.62. “DEDDKLLEKWVKDLREALRTGDEQTLLKLIDPNTRLEIGDKDFHGREVIVKLWKDLGMEIRDVKVHDIKRQGDFLELDIRIDVIINGVRENREHKIYALKVNGKWFVKTQIDE” showed a protease stability score of 2.13. Take “DEDDKRSEKYLQKLLTDTHTGDETAYRDLADPHVRIEFNGREWHGWKRAHEVFHRILEEMRLKDLRIEDVRKQGEKVRLHIRLHSTVDGKQVDLELEIILLKVNGQWYIKDVTLI”: the protease stability score amounted to 0.886. “DEDDNDMEEMVRLFDRDLHTGNEDLLTELADPHARFDINGVELHGMHEFVTIWLEIRFILRDSRVEHIHIQGDKAHIKSRLHGEMIFNGRTTIVHSEVHIYFEKIDGRWMIHRHIVK” had a protease stability score of 0.102. The result for “DEDDQWSEMLAKKYLDRVLTGDEKRMKSLLDPNVRLSVNGVDMHGREVFVHWLRTVLNRVDHQELRLRHLHSQGDKAHVDTEVIENWDGVKIVKETELEFIFVNGRFHSVFHRER” reads 0.267; that for “DEDDRDMREFWELLFHYLLTGDWESLEKLIDPNARIRVNGKELHGMHYHIRQLTHEVKRFDHIDQRIHHSSVINGKIHLDIHLIINVDGQSFVIHIKMHVDKVDGRWLTRSVHIH”, 1.09. In turn, “DEDDRHSERMSEYMIKVWMTGDEDAEKRLFDPHARIDVDGQEFIGREELHKISHEHLRKLGFDHFHVRHVELRLIDGKAHLSLDTEVRVGDFKFETSIYNNFEKVNGKWEIRELQVRIR” showed a protease stability score of 1.2. In the case of “DEDDRIHEWSMRWLIQSLRTGDEDMLREYIDPHTRVHVNGKEEHGREAADKLAKRIDHLHHLIIRSEERQGDKIIMDIERDILIDGVRINTRVSLILLKVNGRWFMKSIHFL” it was 0.826; in that of “DEDDRLAEDLLRLIYHALQTGDEKHLEDFMDPHTQIIIEWNGVRDDTHGREEFSRKFHEQVRELRVHFHQNSIHVINGRAHNDGRLELNINGKIIKLKVILEIQVINGRIKEIRIIVR”, 1.95. With “DEDDRVAEHALRLLFELLRTGDWEHILEMFDPNMRLDFDGKKWHGRESFRELFTRFLEEIRIHDVKVEDFKVFDGRVEVDTRIRGKYGDKETKLETKIVALKINGRWVLESSHYN”, the protease stability score is 0.898. In the case of “DEDEDDAERVFEELRKLIITGDEEEWEKLADPHVRVIINGRELHGREEWARFMRHMRIKNEHVHLRRMRVVDGRIEIDGEMDFRVDFNGQERRTRTDTNLIVTKYDGRWKLHHIEIR” it was 1.33; in that of “DEDEDEIKRIVEIIEHALRTGDEDLMRRLFDPNARLDINGREVHGRESFIEILHHWLHELRFKSLRLHQVHIVDGKAHVDTRVTYHINGVEIHIETERNMLKVDGRWFITHEHHR”, 0.025; in that of “DEDEDESRRFHEEFIKRILTGDEDEFVKLLDPDVRIEIGDKKSIGRERALERFHRMLTEIRVHHVELRERTIQGDKVFLNMEVDLEFNGRRDRTKFHMIIWKVDGQWTLSEMRVK”, 2.48.

“DEDEDFIRHQIQLYIELFETGDWRSLKRLADPNARHHINGRDLHGMDLFRRHIEHMGIKIKHIKLRDMRVIGDKIELKVENNVEIDGRERSLEEEIIARKIDGRWILESSTIR” showed a protease stability score of 0.39. In the case of “DEDEDHVRDMIEVFVRLMITGDEDTFKNLADPHVQFHFENVKLHGRHALLEWLRRLNREFKNIRVQILVHHVEVQGEKATVHSHIVVHVGDKTEHYDTELHIIVIDGRIKTVIIKRK” it was 1.5. In the case of “DEDEDIVRRHLHKLSKAWRTGDEETEKKLADPHARIQIGDKTDHGMEKMTKDWHEFLREMRVEIRIEDTRVQGDKVVNHIHIHSDIDGKEIILHSRIIVRKIDGRWHIESFVLI” it was 0.475; in that of “DEDEDLLRRFTELWNHIYLTGDERMLHHLVDPHARLDVNGKEMHGRELLIKWMVKEIRDLGADHYRIDIKHYHFVDGRAHVQSTLEVDIGDKRITFYIRLILLKVNGRWVVHTIYYH”, 1.55; in that of “DEDEDSFRRISKLLSHAFRTGDEDLVLELLDPHVRIVIGDKELHGWEQMDRWVRELRIRDHEIKRLDIQGDKAIVDTRLLTRVGDFHYLIDVRIIFTKVDGQWHVHQFEFH”, 1.52. Turning to “DEDEDTAHETWKILVHSLITGDERTMELLMDPNVQVHVGDKRHIGRERASRFHSEIRTEHVEMRTSEMQGNKVILHGRVVMRVNGKTLDHDFHLILDKIDGKWYITEIRFK”, the protease stability score amounted to 0.517.

For “DEDEEAAEKMTELFRKSIKTGDEDLLTRLIDPHVRVDVNGRDIHGRESYFHELRNLGITNVEMQLKSRDVIGDKVHIDGTNRFNGRNHKVIIIVLKFNGRWVIEEIRIH”, the protease stability score is -0.045.

As to “DEDEEAARHFLEQWLEALLTGDEETLTKLLDPHTRLIVDGQELVGRELWLEFFKRIKNMKIHRTEIRHTTSIGDKITLNIHVDVEVDGKRRRFDVQYVILKVNGRWLLKQVNNH”, the protease stability score amounted to 0.498.

“DEDEEALDRFLEEWRRYFETGNWEMISNLVDPHARLEQGDKRFHGREEVAKYIHHLVRHMRINDFDIEHRDVQGDKIRIHLRLNGEIDGRRTEFEIHMIYIKVNGRWVVKSMVVN” gave a protease stability score of 0.882. In the case of “DEDEEASKIFWEIWLHNVRTGDEHAINELVDPHVKMVYGDKTFHGMKMLERLYRELGVKHMEVRLDDERLINGVLTLDTRLIIRVDGRTIDIKTEIIALKVNGKWVVKSITYR” it was 1.1. “DEDEEATRYALELMKKMHETGDEDSIKHLMDPHTKMDVNGVIFHGREAFHVWLNRFDVIRRFNIKHMKSVGDFLHIEGELDSEVNGKRIVTEVRIVSFKFNGRWHLSSTKIL” came in with a protease stability score of 1.53.

Sequence “DEDEEAVRHVVEEWFKFLLTGDEESFEKMFDPSARLIIGDKHYHGRDLLSHVLRELRFKEHRIHDMEIRVVNGKAEVIIHGHEVGIWNGVESESHSEIIIIIDKYDGRWHFHSVEIIFR” showed a protease stability score of 2. Take “DEDEEDAHRAVQKLTEVINTGDWETFEKFADPNTRFEYGNFHIHGREVIRHFWLHEVEKFKNITIFIRHVQVINGRVESHGENRFNGKSYHFHIIFRKFNGRWHLERIHLE”: the protease stability score was 1.61. The result for “DEDEEDAQEILKRFVHANETGDWRILEELIDPNARYEQGDKHLVGREEVLRRMIELGIKHTYIHSFSVQGDKLRLDTSIQFENHRVKTHLILNKINGRWVIKSIHIH” reads 1.91; that for “DEDEEDARIAWEILVRVWKTGDEEELMKMADPNTRLEINGREFHGREHYLHMSRELRVERVDVRRLEVFDGKVHLEGESHMEVNGKRRTHKVVHIMRKIDGRWHIEYFIVH”, 1.31; that for “DEDEEDARRFLEILQHHMRTGDWDSLYRLLDPHVRLHIGDKHHHGREEIRKHLHHLRFKELENRHITVYDGRMHVHGRIQGKFDGRDDKYESEIVVLKVDGQWLIEEIHVK”, 2.06.

Take “DEDEEDIRKAVKDFSENFQTGDEDRFKELADPNDRMHVNGREVHGRENIVKSLREEWKRLGVDHIHFEVRRITVQGEKIIVFSFLRIDNENERHHEDVLIIMRKVDGRWMIRTIRVR”: the protease stability score turned out to be 1.45. The sequence “DEDEEDKKWMSEHLENLIHTGDEENLLKLVDPHAKVLVDGRTRHGRETLETWLDRFLRELGVDRVESRITHFDRIDGKVHVIMSIHVNGVDFISHSISQKVNGRWVIRSLHYDER” yielded a protease stability score of 0.587. “DEDEEDMRHALELIYRTFETGDERTTEELMDPHARIDIGEFKLHGREEAVEFYRLLLRKVKNLTIKIHHVEVYGEKITIDGRIDFDGRKRRVIILVEKVDGKWVINEIRVH” registered a protease stability score of 1.42.

The record behind these values is the NTF2 design screens of Basanta et al. (2020).
